Laboratory results: patent US20240052042A1 (Novartis, published 2024)

T1: human NPR3 in the presence of ANP (human, UniProt P17342 27-481; P01160 124-151, limits assumed)
T1 construct: also called hNPR3 + 100 nM ANP
T1 sequence (looked up): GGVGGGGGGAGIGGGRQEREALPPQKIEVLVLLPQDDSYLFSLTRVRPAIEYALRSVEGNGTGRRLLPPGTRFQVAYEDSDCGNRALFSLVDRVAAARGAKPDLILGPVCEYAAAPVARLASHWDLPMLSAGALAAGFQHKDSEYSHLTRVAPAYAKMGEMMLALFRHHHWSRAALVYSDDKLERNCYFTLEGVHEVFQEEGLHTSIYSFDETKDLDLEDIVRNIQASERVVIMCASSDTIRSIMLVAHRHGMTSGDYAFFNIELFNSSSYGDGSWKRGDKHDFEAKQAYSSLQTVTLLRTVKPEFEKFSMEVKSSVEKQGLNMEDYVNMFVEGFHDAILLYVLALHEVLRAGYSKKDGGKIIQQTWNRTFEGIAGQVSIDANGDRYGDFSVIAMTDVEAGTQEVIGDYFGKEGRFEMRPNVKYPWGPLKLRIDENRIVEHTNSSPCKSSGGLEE
T1 sequence (peptide, looked up): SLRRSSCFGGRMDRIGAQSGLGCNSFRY

T2: human NPR3 (counter target) (human, UniProt P17342 27-481, limits assumed)
T2 construct: Pannings used hNPR3-hFc; also called hNPR3; hNPR3-hFc
T2 sequence (looked up): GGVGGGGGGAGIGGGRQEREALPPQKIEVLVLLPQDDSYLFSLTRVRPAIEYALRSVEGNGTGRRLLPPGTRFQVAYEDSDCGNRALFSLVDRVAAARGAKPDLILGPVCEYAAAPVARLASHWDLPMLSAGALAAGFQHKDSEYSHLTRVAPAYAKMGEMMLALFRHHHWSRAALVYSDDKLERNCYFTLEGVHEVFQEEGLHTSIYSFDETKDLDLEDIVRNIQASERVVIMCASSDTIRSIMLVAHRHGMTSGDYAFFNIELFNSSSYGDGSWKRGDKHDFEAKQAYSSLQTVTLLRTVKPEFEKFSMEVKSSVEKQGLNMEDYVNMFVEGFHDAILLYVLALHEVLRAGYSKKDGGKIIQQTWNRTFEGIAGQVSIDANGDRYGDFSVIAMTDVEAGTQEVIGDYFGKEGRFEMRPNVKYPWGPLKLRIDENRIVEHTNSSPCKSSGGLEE

T3: human NPR1 on CHO-K1 cells in the presence of ANP (human, UniProt P01160 124-151)
T3 construct: also called hNPR1 CHO K1 + 100 nM ANP
T3 sequence: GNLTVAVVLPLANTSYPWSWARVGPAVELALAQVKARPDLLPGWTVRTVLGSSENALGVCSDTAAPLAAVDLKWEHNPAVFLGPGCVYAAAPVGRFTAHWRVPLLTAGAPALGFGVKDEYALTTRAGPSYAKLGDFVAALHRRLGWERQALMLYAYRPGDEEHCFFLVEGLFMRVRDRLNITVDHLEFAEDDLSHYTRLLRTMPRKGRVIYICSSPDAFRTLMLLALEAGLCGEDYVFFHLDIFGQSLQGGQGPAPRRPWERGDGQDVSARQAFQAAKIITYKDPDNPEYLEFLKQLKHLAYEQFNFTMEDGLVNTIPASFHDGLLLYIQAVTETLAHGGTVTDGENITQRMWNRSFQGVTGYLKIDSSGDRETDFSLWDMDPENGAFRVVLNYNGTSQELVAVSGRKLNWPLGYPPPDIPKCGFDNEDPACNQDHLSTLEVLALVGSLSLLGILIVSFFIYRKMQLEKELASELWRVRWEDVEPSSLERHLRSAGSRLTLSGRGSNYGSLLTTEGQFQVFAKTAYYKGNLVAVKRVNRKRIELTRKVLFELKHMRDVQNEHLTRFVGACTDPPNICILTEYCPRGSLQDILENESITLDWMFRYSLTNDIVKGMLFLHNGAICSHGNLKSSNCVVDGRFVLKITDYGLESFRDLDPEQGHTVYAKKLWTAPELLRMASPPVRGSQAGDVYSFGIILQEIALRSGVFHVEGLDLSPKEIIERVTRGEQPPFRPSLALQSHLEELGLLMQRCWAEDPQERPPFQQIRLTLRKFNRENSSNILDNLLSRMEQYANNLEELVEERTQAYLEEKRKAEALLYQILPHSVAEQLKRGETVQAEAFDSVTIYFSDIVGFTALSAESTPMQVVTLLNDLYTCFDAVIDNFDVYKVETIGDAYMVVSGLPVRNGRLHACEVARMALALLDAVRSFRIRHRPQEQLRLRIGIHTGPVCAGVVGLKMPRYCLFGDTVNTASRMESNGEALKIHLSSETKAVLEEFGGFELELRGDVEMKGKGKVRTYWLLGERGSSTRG
T3 sequence (peptide): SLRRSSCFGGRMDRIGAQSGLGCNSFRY

T4: human NPR1 on CHO-K1 cells (human, UniProt P16066 33-1061)
T4 sequence: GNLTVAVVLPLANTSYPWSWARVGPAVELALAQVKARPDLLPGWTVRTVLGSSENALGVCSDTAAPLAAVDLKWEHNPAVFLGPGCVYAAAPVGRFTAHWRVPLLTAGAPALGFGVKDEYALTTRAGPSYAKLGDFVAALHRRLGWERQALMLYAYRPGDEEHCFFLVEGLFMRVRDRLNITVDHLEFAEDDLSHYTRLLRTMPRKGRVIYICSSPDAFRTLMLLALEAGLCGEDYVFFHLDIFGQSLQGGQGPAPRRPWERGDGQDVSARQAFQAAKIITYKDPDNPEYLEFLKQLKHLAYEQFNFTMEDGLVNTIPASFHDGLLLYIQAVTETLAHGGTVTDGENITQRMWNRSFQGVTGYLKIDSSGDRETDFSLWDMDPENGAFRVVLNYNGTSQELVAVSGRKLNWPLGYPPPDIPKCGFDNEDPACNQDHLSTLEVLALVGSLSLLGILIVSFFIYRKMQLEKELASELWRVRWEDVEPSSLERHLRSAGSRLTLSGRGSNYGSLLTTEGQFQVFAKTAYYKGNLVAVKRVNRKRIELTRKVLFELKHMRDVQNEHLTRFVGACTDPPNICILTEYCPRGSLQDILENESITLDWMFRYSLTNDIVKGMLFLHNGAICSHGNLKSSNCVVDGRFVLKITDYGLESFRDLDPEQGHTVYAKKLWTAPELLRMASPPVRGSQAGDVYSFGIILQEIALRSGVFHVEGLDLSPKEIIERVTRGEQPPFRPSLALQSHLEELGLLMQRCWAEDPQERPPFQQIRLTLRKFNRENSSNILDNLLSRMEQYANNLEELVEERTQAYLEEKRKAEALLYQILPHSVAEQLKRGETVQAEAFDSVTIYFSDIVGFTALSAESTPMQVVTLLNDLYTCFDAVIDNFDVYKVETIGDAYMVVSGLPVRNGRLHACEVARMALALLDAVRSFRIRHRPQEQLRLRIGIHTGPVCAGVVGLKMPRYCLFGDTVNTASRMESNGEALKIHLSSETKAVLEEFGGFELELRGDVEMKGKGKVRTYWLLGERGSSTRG

T5: rat NPR1 (rNPR1) (rat, UniProt P18910 29-469, limits assumed)
T5 construct: Soluble antigen
T5 sequence: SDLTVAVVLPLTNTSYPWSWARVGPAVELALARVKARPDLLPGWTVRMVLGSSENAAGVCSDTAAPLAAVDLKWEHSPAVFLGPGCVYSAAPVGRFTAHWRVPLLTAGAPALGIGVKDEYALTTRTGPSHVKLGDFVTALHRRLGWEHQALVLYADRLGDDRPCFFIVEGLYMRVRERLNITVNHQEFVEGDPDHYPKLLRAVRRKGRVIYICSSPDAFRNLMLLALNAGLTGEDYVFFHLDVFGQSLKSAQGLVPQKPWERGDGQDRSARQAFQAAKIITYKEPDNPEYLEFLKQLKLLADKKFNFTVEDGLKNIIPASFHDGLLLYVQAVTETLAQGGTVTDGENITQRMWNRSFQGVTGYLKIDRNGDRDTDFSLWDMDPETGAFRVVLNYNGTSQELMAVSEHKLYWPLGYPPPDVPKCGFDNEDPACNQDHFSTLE

T6: rNPR1-ANP complex (rat, UniProt P01160 124-151 (human entry), limits assumed)
T6 construct: rNPR1 antigen in the presence of ANP; also called rNPR1 + 100 nM ANP
T6 sequence: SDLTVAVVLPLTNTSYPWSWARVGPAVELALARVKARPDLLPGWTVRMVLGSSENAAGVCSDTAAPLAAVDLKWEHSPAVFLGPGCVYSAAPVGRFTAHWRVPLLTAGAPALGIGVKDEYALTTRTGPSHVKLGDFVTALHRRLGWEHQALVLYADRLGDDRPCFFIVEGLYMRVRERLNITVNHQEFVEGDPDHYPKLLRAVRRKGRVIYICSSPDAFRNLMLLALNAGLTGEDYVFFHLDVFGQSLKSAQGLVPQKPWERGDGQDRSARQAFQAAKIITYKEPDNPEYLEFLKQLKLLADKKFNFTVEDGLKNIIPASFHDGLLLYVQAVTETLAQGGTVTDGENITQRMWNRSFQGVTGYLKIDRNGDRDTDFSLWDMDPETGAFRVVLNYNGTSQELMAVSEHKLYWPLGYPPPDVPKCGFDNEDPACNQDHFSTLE
T6 sequence (peptide): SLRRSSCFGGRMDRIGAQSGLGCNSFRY

T7: hNPR1-ANP complex (human, UniProt P01160 124-151, limits assumed)
T7 construct: hNPR1 antigen in the presence of ANP; also called hNPR1 + 100 nM ANP
T7 sequence: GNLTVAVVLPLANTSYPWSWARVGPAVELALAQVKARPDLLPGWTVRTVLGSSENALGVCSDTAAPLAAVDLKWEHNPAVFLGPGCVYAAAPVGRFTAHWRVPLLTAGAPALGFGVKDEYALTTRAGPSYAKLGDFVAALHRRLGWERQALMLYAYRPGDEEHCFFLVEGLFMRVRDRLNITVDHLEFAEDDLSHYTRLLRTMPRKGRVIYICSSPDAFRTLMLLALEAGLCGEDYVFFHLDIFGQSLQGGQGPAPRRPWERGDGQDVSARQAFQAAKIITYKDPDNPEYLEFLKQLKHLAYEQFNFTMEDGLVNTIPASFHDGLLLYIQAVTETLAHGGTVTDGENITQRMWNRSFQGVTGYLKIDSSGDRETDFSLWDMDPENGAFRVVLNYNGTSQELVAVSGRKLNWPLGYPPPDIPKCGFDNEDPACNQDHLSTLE
T7 sequence (peptide): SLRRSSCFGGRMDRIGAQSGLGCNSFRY

T8: human Natriuretic Peptide Receptor 1 (hNPR1) (human, UniProt P16066 33-473, limits assumed)
T8 construct: pannings used NPR1-hFc; also called NPR1-hFc
T8 sequence: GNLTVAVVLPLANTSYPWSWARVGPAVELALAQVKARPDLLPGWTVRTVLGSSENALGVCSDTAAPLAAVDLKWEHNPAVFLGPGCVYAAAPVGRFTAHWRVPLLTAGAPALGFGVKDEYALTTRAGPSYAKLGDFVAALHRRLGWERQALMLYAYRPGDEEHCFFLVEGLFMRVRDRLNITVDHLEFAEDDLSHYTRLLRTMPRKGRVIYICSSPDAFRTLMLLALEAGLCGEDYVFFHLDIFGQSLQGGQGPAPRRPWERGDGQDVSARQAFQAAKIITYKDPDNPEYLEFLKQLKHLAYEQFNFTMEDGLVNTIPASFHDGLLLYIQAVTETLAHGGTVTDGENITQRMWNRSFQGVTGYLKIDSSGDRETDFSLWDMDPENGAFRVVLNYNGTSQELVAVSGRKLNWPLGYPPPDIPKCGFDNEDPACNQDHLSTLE


What was measured:
[1] = biological target: T1, human NPR3 in the presence of ANP; test: ELISA, IgG titrated on coated antigen with ANP (250 fold molar excess), fluorescence [Cont.]
[2] = biological target: T2, human NPR3 (counter target); test: ELISA, IgG titrated on coated antigen, fluorescence [Cont.]
[3] = biological target: T3, human NPR1 on CHO-K1 cells in the …; test: flow cytometry (FL2-H) on hNPR1 CHO-K1 cells with saturating ANP, IgG titrated; control parental CHO-K1 [panel XX03]
[4] = biological target: T4, human NPR1 on CHO-K1 cells; test: cell-based or functional assay
rat NPR1 (rNPR1) [5] = biological target: T5, rat NPR1 (rNPR1); test: FabCys, parental value by Octet, assay limit reached (table comment), as in Table 14
rNPR1-ANP complex [6] = biological target: T6, rNPR1-ANP complex; test: as above
hNPR1-ANP complex [7] = biological target: T7, hNPR1-ANP complex; test: as above
[8] = biological target: T8, human Natriuretic Peptide Receptor 1 …; test: as above
rat NPR1 (rNPR1) [9] = biological target: T5, rat NPR1 (rNPR1); test: FabCys affinity (Octet per Table 18 comment)
rNPR1-ANP complex [10] = biological target: T6, rNPR1-ANP complex; test: FabCys affinity (Octet per Table 18 comment)
hNPR1-ANP complex [11] = biological target: T7, hNPR1-ANP complex; test: FabCys affinity (Octet per Table 18 comment)
[12] = biological target: T8, human Natriuretic Peptide Receptor 1 …; test: FabCys affinity (Octet per Table 18 comment)

Row | binding result [1] | binding result [2] | EC50 (read off the curve) [3] [nM] | cGMP conc [nM] at 1 µM FabCys, +0.075 nM ANP [4] [nM] | cGMP conc [nM] at 1 µM FabCys, without ANP [4] [nM] | Kd (rat NPR1 (rNPR1) [5]) [nM] | Kd (rNPR1-ANP complex [6]) [nM] | Kd (hNPR1-ANP complex [7]) [nM] | Kd [8] [nM] | Kd (rat NPR1 (rNPR1) [9]) [nM] | Kd (rNPR1-ANP complex [10]) [nM] | Kd (hNPR1-ANP complex [11]) [nM] | Kd [12] [nM] | Binder
1 | no binding (tested: 200 nM) | no binding (tested: 200 nM) | ~1 |  |  |  |  |  |  |  |  |  |  | XX03 (IgG format) (antibody, V domains shown) VH: EVQLLESGGGLVQPGGSLRLSCAASGFTFSSYWMNWVRQAPGKGLEWVSVIESKGNYIFYADSVKGRFTISRDNSKNTLYLQMNSLRAEDTAVYYCARDRYSMIYSYGAGAFDYWGQGTLVTVSS VL: DIQMTQSPSSLSASVGDRVTITCRASQGISSYLAWYQQKPGKAPKLLIYTASTLQSGVPSRFSGSGSGTDFTLTISSLQPEDFATYYCMQSYEKPRTFGQGTKVEIK
2 |  |  |  | 227 | 207 | 700 | 16000 | 350 | 0.9 | 700 | 16000 | 350 | 0.9 | YY05 (FabCys format) (Fab, V domains shown, Monovalent FabCys) VH: EVQLVQSGAEVKKPGESLKISCKGSGYSFTSYWISWVRQMPGKGLEWMGIIYPGTSYTRYSPSFQGQVTISADKSISTAYLQWSSLKASDTAMYYCARGAVAGQLGFDHWGQGTLVTVSS VL: QSVLTQPPSVSGAPGQRVTISCTGSSSNIGAGYDVHWYQQLPGTAPKLLIYGNSNRPSGVPDRFSGSKSGTSASLAITGLQAEDEADYYCQSYYTSSHGPVFGGGTKLTVL
